In patent US6969760 (ST JUDE CHILDREN S RESEARCH HOSPITAL, dated 2005):

Assays:
Test in all cases: pull-down from DA3(EPOR) cell extracts on GST-EPOR cytoplasmic domain beads, immunoblot
lyn = biological target: T1, lyn (UniProt P25911 2-512, limits assumed)
T1 construct: also called lyn kinase
Procedure: (§1) The fusion proteins were purified by affinity binding to glutathione-sepharose beads and the proteins, on affinity beads, were incubated with extracts of unstimulated or EPO stimulated DA3(EPOR) cells. The bound proteins were recovered from the beads, resolved on SDS-PAGE and the gels blotted to nitrocellulose. The blots were subsequently probed with antisera against various tyrosine kinases.

c-fes = c-fes (UniProt P16879 1-822)
Sequence of c-fes (P16879 whole entry): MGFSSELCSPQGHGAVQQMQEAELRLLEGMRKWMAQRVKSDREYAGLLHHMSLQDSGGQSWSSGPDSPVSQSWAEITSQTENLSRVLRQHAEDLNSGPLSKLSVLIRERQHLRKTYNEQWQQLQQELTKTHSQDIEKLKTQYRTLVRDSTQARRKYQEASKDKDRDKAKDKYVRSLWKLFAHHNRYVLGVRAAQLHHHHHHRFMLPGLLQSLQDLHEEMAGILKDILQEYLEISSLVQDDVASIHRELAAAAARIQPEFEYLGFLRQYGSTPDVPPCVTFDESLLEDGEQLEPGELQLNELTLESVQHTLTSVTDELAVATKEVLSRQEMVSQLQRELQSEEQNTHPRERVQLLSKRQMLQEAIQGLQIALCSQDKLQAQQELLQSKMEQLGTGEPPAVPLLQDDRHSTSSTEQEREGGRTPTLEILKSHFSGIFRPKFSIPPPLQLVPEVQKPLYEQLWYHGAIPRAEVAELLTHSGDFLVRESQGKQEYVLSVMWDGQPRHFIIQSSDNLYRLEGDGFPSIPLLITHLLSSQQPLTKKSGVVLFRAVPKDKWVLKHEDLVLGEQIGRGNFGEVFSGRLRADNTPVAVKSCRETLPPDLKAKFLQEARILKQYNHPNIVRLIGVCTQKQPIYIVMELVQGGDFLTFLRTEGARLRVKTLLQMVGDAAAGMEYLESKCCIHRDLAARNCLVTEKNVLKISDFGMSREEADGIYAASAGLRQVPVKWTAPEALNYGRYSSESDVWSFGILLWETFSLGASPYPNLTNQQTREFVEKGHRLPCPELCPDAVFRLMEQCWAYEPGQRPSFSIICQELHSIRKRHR
Procedure: as §1

murine Tec = biological target: T2, murine Tec (murine, UniProt P24604 1-630, limits assumed)
T2 sequence (looked up): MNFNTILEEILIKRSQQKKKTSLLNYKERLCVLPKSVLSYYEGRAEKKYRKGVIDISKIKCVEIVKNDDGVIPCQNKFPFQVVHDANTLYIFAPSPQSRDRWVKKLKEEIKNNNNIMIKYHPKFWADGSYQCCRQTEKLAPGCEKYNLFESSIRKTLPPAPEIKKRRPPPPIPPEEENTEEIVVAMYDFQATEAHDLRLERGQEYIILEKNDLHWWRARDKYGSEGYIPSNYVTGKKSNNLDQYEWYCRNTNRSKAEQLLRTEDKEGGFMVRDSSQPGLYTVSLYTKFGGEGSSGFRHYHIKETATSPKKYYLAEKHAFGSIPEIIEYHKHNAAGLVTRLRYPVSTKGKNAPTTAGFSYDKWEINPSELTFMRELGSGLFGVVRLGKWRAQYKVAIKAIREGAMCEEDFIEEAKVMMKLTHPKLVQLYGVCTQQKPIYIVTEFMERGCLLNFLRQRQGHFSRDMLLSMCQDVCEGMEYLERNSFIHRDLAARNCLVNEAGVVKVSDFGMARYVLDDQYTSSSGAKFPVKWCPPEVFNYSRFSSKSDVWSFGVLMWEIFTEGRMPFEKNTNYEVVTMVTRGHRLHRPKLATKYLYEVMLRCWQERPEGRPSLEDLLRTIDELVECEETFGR
Procedure: as §1

Measured: binding result

T1 sequence (P25911 2-512 limits assumed): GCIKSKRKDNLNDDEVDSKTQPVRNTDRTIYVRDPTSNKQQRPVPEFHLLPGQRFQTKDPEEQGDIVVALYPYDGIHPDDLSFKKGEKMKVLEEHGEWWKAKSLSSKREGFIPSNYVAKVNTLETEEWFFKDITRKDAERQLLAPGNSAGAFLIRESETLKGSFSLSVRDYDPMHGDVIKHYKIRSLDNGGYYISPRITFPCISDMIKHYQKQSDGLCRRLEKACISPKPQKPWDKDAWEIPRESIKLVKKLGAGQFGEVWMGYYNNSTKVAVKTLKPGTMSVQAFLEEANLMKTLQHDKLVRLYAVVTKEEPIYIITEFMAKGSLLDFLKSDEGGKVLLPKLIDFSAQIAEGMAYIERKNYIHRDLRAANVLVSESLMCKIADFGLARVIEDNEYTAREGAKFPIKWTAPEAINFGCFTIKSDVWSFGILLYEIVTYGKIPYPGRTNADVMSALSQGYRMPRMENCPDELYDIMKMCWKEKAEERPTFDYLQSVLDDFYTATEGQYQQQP

B1: GST fusion protein containing the full length murine EPOR cytoplasmic domain (amino acids 257-483) (other, UniProt P14753 281-507, looked up)
chain: IWPGIPSPESEFEGLFTTHKGNFQLWLLQRDGCLWWSPGSSFPEDPPAHLEVLSEPRWAVTQAGDPGADDEGPLLEPVGSEHAQDTYLVLDKWLLPRTPCSENLSGPGGSVDPVTMDEASETSSCPSDLASKPRPEGTSPSSFEYTILDPSSQLLCPRALPPELPPTPPHLKYLYLVVSDSGISTDYSSGGSQGVHGDSSDGPYSHPYENSLVPDSEPLHPGYVACS
notes: range 257-483; Expressed in E. coli and immobilised on glutathione-sepharose; also called GST-EPOR fusion protein; fusion protein containing the complete cytoplasmic domain; not shown: amino-terminal glutathione-S-transferase (GST) domain encoded by pGEX-2T
no binding: all assays above
